Assay results as given in patent US11357816B2, “Ligand controling interaction between gags with their effector molecules and use thereof” (CENTRE NATIONAL DE LA RECHERCHE SCIENTIFIQUE (CNRS), priority 2018, dated 2022).

Biological target: T1, Sema-3A (Mus musculus, UniProt O08665)
T1 construct: Visual cortex of adult mice were dissected and lysed in homogenization buffer; from tissue; host or cells: adult mouse visual cortex
T1 sequence (O08665 21-772): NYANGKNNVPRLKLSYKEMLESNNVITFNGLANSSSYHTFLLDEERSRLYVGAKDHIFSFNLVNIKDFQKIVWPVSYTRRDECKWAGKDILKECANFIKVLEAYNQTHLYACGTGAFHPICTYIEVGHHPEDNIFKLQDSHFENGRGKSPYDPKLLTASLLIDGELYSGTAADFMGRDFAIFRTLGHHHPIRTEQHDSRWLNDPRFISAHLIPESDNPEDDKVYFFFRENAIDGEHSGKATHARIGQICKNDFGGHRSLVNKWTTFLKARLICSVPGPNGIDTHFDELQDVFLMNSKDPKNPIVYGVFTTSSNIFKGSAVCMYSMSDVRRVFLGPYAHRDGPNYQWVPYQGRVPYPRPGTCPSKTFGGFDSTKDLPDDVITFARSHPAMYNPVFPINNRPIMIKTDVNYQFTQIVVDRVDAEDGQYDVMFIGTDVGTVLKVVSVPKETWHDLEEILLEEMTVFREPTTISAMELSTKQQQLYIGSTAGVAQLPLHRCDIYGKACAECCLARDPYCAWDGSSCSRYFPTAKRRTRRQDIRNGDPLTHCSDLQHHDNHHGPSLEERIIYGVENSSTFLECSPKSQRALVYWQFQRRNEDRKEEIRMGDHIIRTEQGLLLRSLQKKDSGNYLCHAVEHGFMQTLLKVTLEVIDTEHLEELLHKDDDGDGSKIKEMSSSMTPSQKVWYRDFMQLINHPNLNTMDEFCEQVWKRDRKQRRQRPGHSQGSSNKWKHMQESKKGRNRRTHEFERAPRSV
Assay: Ligand pull-down with lysates of adult mouse visual cortex, western blot for Sema-3A
Assay type: binding
Conditions: ligand pre-incubated with 50 nmol peptide
Description: Visual cortex of adult mice were dissected and lysed in homogenization buffer (0.32 M sucrose, 5 mM HEPES, 10 mM MgCl2 and protease inhibitors). Samples were centrifuged (8 min, 1700 g) at 4° C. and the supernatant was incubated 2 hours at 37° C. with 5 nmol of GAG mimics. For the competition assay, ligands were pre-incubated 30 min with 50 nmol of RK-, AA- or SC-peptide at 37° C. prior to incubation overnight at 4° C. with streptavidin-coupled Dynabeads (Life technologies). The loaded beads were washed with homogenization buffer and heated 10 min at 95° C. in Laemmli buffer (with DTT) to detach proteins for western blot analysis.
Immunoprecipitated proteins were separated on NuPAGE 4-12% Bis-Tris pre-cast gels (Invitrogen) for 1 h at 200 V and transferred onto a methanol-activated PVDF membrane at 400 mA for 1 h. Membranes were blocked with 5% non-fat dry milk for 1 h before incubation with primary antibody anti-Sema3A (rabbit, 1/1000, Millipore) overnight at 4° C. […] Membranes were digitized with an LAS-4000 (Fujifilm) and quantified by densitometry with ImageJ.
To measure the in vivo activity and specificity of biotinylated GAG mimics, we performed biochemical and immunohistochemical analyses. […] We first focused on Sema-3A, as cortical Otx2 levels are too low to be reliably detected biochemically.

RKQRRERTTFTRAQL [RKpep]
disruption of Sema-3A interaction with (EC′AC′)6 by competing peptide: specifically disrupts Sema-3A interaction
